Data set [1] has as its target T1, GST-Arx (286-430) (UniProt O35085 286-430). The data set is described as follows: EMSA. A general note: In EMSA bound probe runs differently from free probe, usually more slowly.
For data set [2], the target named is T1, GST-Arx (286-430). Nature of the data set: EMSA. The source holds these as a separate data set.
Data set [3] concerns the target T1, GST-Arx (286-430). Nature of the data set: competition.

Substitutions are numbered along the chain they refer to.

This note sets out measurements from article PMC2581427.

T1 sequence (O35085 286-430): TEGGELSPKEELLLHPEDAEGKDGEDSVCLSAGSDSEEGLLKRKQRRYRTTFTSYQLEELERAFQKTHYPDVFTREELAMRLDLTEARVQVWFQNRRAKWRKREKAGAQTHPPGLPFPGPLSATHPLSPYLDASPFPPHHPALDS

B1: Ebf3 probe (dsDNA)
DNA 1: GCGATTTTCCCGATTAATTAAAATATTAACGCA
DNA 2: GTGCGTTAATATTTTAATTAATCGGGAAAATCG
B1: the binding result with GST-Arx (286-430) [1] is recorded as “binds”.

B2: Lmo1 probe (dsDNA)
DNA 1: GTAATGAATTGATTTAATTAACAGGGGAGTCTGA
DNA 2: GTCAGACTCCCCTGTTAATTAAATCAATTCATTA
Turning to B2, the binding result in the data set with GST-Arx (286-430) [2] was “binds”.

B3: Lmo1mut1 (dsDNA)
DNA 1: B2 DNA 1 with A16C, A17C
DNA 2: B2 DNA 2 with T19G, T20G
Consider B3, for which, in the data set with GST-Arx (286-430) [3], the binding result is listed as “no binding”.

B4: Lmo1mut2 (dsDNA)
DNA 1: B2 DNA 1 with T9C, T10C
DNA 2: B2 DNA 2 with A26G, A27G
As to B4, in the data set with GST-Arx (286-430) [3], the binding result is listed as “binds”.

B5: Shox2 probe (dsDNA)
DNA 1: GCAAAATCCACGCTTAATTAAATTAATTAGGGA
DNA 2: GTCCCTAATTAATTTAATTAAGCGTGGATTTTG
Take B5: the binding result with GST-Arx (286-430) [2] is reported as “binds”.
